From patent publication US9315838B2, “Method to increase algal biomass and enhance its quality for the production of fuel” (priority 2012, dated 2016)
Entries after “also recorded” stand apart in the source; their conditions may differ.

B1: PGD1: recombinant Chlamydomonas galactoglycerolipid lipase (SEQ ID NO:1), His-tagged, purified from E. coli inclusion bodies and refolded (protein, listed as Chlamydomonas reinhardtii)
chain: MSQLLSHFVRVPTFASPDQVLREARDKERELQNARAPTDVSGFLAPVGVWELKHLRKLSSLTSLTYYMHLVTPRRLQLMHGLDLVVTSRACDVRPYEHNRTAEECGADGDGMAVSFAEARQVYAELKRGTGGASGSGSNGAAAAPVAVAAGVSNIVALPRELPFVPLPGGATEGGEAGAEAAAGAAAAAAAAAGEGTGPGAQGQGAGGLQLPLASTEAIGRMLRSPAEVVSAKLAEAALAASAAAAASPLGAAAESFYAGLASLPIPLAGGLVGANNKAANTLLAPPNGAAASSSGGGGGSGGAAAASEVVGSSRGAQGADPADPGAPNTSGKATAASIAAMATAELRSRRLGGTGPAKTGGSGAASSGSSSGGIGAGGMAPVTAGGMRLSPAATAFSAPPAATVSSLASTDAGTALVPVASSSAASLTFSSSSAYSCPSEWFVVDDPASATRIFVIQGSDTLDHWKLNLTFDPVVFEEPALGVKVHRGVYEAALVLYERFLPLVYEHLEASPFSKVTFTGHSIGGSMATLLMLMYRNRGVLPPHSIATVYTFGAPAVFCQQQQPAVADASSACCNGSSSNGSSTPASGSSSPRSGSPGSASASSLPAGSGSGAGGMSLWALGLSGFGMGGASLAGGGSTSAPSSTAGLASVDGGAVAAGGGGSGFNSSGLGFMSVEDPQAVSMPPGAAQAPSPASAPAPTAGPGHNSHSSHSKAGPAAAKSCACGVDGLLTRLGLAPHVVRNVVMARDVVPRAFACDYSLVADILKGWGPAFREHCCLNRHGRKHLYYFVGRMCILQPDAWHSFVGGDPEHPMLPPGPELYALAEPEDAAAARAHYPALSDLPILNAVTSNGHTRGSGGNGANAAVNAAVNASGPSAAASGGGGGSQQPTAAAAVPSTANFGTALVASAAQRERDARGGGSRLQPRSVVEAVWEIMDNPHPLETLADPGAYLASGSISRYHNPEHYTKALGRLTHLKRLAERRQHPHGQAQQKQAQPQAGEGGIRSMFAGRNIRSFGGGVRSGSGSGSAGRRGLLHQQAASNGTAADAVLASGAAGAAAAAWGSAPQLADLVSGNGGRASAGYEGGVWDSSDGLDLHLSDFMGASAVGAADPHACR
modifications: His tag

Assays:
[1] = tested on: Chlamydomonas reinhardtii; experiment: TAG accumulation (ratio of fatty acids in TAG over total fatty acids) after N deprivation with DCMU; assay type: cell-based; details: 2 d of N deprivation, FIG. 8E
Method: FIG. 8. […] Two representative cultures per line are shown.
Strains and growth conditions.
(§1) Lipid extraction, thin-layer chromatography (TLC) of neutral lipids, transesterification and gas-liquid chromatography were done according to (Moellering and Benning 2010). Briefly, lipids were extracted from cell pellets with methanol, chloroform, 88% formic acid (2:1:0.1 by volume). To the extract 0.5 volume of 1M KCl, 0.2 M H3PO4 was added, mixed and phases were separated by low speed centrifugation. For TAG quantification, lipids were resolved by TLC on Silica G60 plates (EMD chemicals, #5721-7, http://www.emdchemicals.com) developed in petroleum ether-diethyl ether-acetic acid (80:20:1 by volume). Polar lipids were separated on the same plate using chloroform-methanol-acetic acid-H2O (75:13:9:3 by volume) as solvent. To analyze lyso-glycolipids during for the PGD1 assay, acetone-toluene-H2O (91:30:7.5 by volume) was used, instead. Brief exposure to iodine vapor was employed for visualization of lipids. Transesterification of each lipid and separation of fatty acid methyl esters by GLC were as previously described (Rossak et al. 1997). Transesterification was conducted on pellets with a known number of cells to determine the cellular total fatty acid content. Staining with α-naphtol (Benning et al. 1995) was used for the PGD1 assay to detect galactoglycerolipids.

[2] = tested on: Chlamydomonas reinhardtii pgd1 mutant; experiment: Thiobarbituric acid reactive substances (TBARS) analysis following N deprivation; details: DCMU 2 μM, FIG. 8D
[3] = tested on: Chlamydomonas reinhardtii pgd1 mutant; experiment: Chlorosis, chlorophyll content and cell viability of N-deprived cultures with DCMU; details: DCMU 2 μM added to N-deprived (TAP-N) cultures
[4] = PGD1 lipase assay on other major membrane lipids; assay type: biochemical, Chlamydomonas
Method: (§2) Lipid extraction, thin-layer chromatography (TLC) of neutral lipids, transesterification and gas-liquid chromatography were done according to (Moellering and Benning 2010). Briefly, lipids were extracted from cell pellets with methanol, chloroform, 88% formic acid (2:1:0.1 by volume). To the extract 0.5 volume of 1M KCl, 0.2 M H3PO4 was added, mixed and phases were separated by low speed centrifugation. For TAG quantification, lipids were resolved by TLC on Silica G60 plates (EMD chemicals, #5721-7, http://www.emdchemicals.com) developed in petroleum ether-diethyl ether-acetic acid (80:20:1 by volume). Polar lipids were separated on the same plate using chloroform-methanol-acetic acid-H2O (75:13:9:3 by volume) as solvent. […]
(§3) BL21 (codon+) E. coli strains harboring the empty pMK1006 vector or the pMK1006-PGD1 construct were grown to log phase at 37° C. […] Protein concentration was determined with Bio-Rad Protein Assay Dye Reagent Concentrate (http://www.bio-rad.com) according to the manufacturer's instructions.
(§4) To prepare lipid substrates from Chlamydomonas or E. coli cells, lipids were extracted from 48 hours N-deprived Chlamydomonas cells or IPTG induced E. coli cells expressing cucumber MGDG synthase (Shimojima et al. 1997) and resolved by polar TLC. […] Per assay 10 μg refolded PGD1 protein (quantified as stated above) in 50 μL protein refolding buffer was added. […]

[5] = PGD1 lipase assay on DGDG; assay type: biochemical, Chlamydomonas
Method: as §2, §3, §4

[6] = PGD1 lipase assay on MGDG; assay type: biochemical
Method: as §1
BL21 (codon+) E. coli strains harboring the empty pMK1006 vector or the pMK1006-PGD1 construct were grown to log phase at 37° C. Isopropyl-β-D-thiogalactopyranoside was added to the final concentration of 0.5 mM to induce protein production. Cells were harvested after 3 hours of induction. To extract proteins, cells were resuspended in lysis buffer (20 mM Tris-HCl, pH 7.9, 10% glycerol, 150 mM NaCl, 1 mM dithiothreitol). The mixture was then frozen in liquid nitrogen and thawed at room temperature for three cycles and sonicated to lyse cells. Lysates were centrifuged at 21,000×g for 15 minutes to obtain inclusion bodies. Inclusion bodies were washed with 5 mL/g wash buffer (4 M urea, 0.5 M NaCl, 1 mM EDTA, 1 mg/ml sodium deoxycholate, 50 mM Tris-Cl pH 8.0) twice and denatured with solubilization buffer (8 M urea, 50 mM Tris-Cl pH 8.0, 10 mM dithiothreitol) by incubation at 50° C. for 20 min. Supernatant was collected after centrifugation at 21,000×g for 30 minutes and subjected to Ni-NTA affinity purification as described before (Lu and Benning 2009). His-tagged PGD1 protein was eluted with solubilization buffer containing 200 mM imidazole. […] After 1 hour incubation at 4° C., proteins were aliquoted and kept frozen at −80° C. Protein concentration was determined with Bio-Rad Protein Assay Dye Reagent Concentrate (http://www.bio-rad.com) according to the manufacturer's instructions.
as §4, with “TLC. Corresponding bands were isolated and lipids were recovered from silica gel by extraction with chloroform-methanol (1:1 by volume). For each PGD1 reaction, 75 nmol lipid substrates extracted from Chlamydomonas, or E. coli cells expressing the cucumber MGDG synthase were used.” for “TLC.”

Molecule	pgd1 TAG phenotype ([1]; pgd1 mutant, DCMU 2 μM)	TAG levels of the wild-type parental strain ([1]; wild-type parental strain dw15-1, DCMU 2 μM)	burst of TBARS in the pgd1 mutant [2]	chlorosis ([3]; FIG. 8A, B)	viability loss ([3]; FIG. 8C)	generation of lyso-DGTS and lyso-PtdEtn ([4]; iodine staining, compared with Rhizopus lipase, FIGS. 16A and 16B)	Lyso-SQDG hydrolysis ([4]; sugar-specific staining, FIG. 16D)	formation of lyso-DGDG ([5]; DGDG extracted from Chlamydomonas, sugar-specific staining, FIG. 7C)	product formed in competition experiment ([5]; E. coli-derived MGDG and Chlamydomonas-derived DGDG offered in equal amounts)	apparent MGDG concentration up to which hydrolysis was linear in reaction velocity ([6]; E. coli-derived MGDG, 3 hours incubation, FIG. 15B) [µM]	time at which lyso-MGDG was detectable ([6]; E. coli-derived MGDG, FIG. 15A) [min]	positional preference of acyl group hydrolysis ([6]; E. coli-derived MGDG, compared with Rhizopus lipase digestion, FIG. 7H, 7I)	activity on E. coli-derived MGDG versus mature MGDG from Chlamydomonas ([6]; intensity of the lyso-MGDG band, FIG. 7B)	lyso-MGDG product generated ([6]; mature MGDG isolated from Chlamydomonas (predominantly 18:3/16:4), TLC, FIG. 7B)
CN(C)C(=O)Nc1ccc(Cl)c(Cl)c1 [DCMU, 3-(3,4-dichlorophenyl)-1,1-dimethylurea]	did not rescue	decrease; also recorded: lower levels of TAG	reverted	suppressed	suppressed	–	–	–	–	–	–	–	–	–
B1	–	–	–	–	–	detectable by iodine staining, but at much lower levels	not detectable	no formation of lyso-DGDG was detected	only lyso-MGDG was formed	≤ 300	30	prefers acyl groups at the sn-1 position	more active	rather faint
